From patent US20160040149A1, “Compositions Having Dicamba Decarboxylase Activity and Methods of Use” (priority 2013, published 2016)

B1: 145 (protein)
chain: MAQGKVALEEHFAIPETLQDSAGFVPGDYWKELQHRLLDIQDTRLKLMDAHGIETMILSLAAPAVQAIPDRRKAIEIARRANDFLAEECAKRPDRFLAFAALPLQDPDAATEELQRCVNDLGFVGALVNGFSVEGDGQTPLYYDLPQYRPFWGEVEKLDVPFYLHPRNPLPQDSRIYDGHPWLLGPTWAFAQETAVHALRLMASGLFDEHPRLNIILGHMGEGLPYMMYRIDHRIAWVKLPPRYPAKRRFMDYFNENFHITTSGNFRTQTLIDAILEIGADRILFSTDWPFENIDHATDWFNATSIAEADRVKIGRTNARRLFKLDGA
modifications: Dicamba decarboxylase variant
B2: 146 (protein)
chain: MAQGKVALEEHFAIPETLQDSAGFVPGDYWKELQHRLLDIQDTRLKLMDAHGIETMILSLAAPAVQAIPDRRKAIEIARRANDFLAEECAKRPDRFLAFAALPLQDPDAATEELQRCVNDLGFVGALVNGFSQEGDGQTPLYYDLPQYRPFWGEVEKLDVPFYLHPRNPLPQDSRIYDGHPWLLGPTWAFAQETAVHALRLMASGLFDEHPRLNIILGHMGEGLPYMMYRIDHRIAWVKLPPRYPAKRRFMDYFNENFHITTSGNFRTQTLIDAILEIGADRILFSTDWPFENIDHAADWFNATSIAEADRVKIGRTNARRLFKLDGD
modifications: Dicamba decarboxylase variant
B3: 147 (protein)
chain: MAQGKVALEEHFAIPETLQDSAGFVPGDYWKELQHRLLDIQDTRLKLMDAHGIETMILSLAAPAVQAIPDRRKAIEIARRANDFLAEECAKRPDRFLAFAALPMQDVDAATEELQRCVNDLGFVGALVNGFSQEGDGQTPLYYDLPQYRPFWGEVEKLDVPFYLHPRNPLPQDSRIYDGHPWLLGPTWAFAQETAVHALRLMASGLFDEHPRLNIILGHMGEGLPYMMYRIDHRIAWVKLPPRYPAKRRFMDYFNENFHITTSGNFRTQTLIDAILEIGADRILFSTDWPFENIDHAADWFNATSIAEADRLKIGRTNARRLFKLDLD
modifications: Dicamba decarboxylase variant
B4: 148 (protein)
chain: MAQGKEALEEHFAIPETLNDSAGFVPGDYWKELQHRLLDIQDTRLKLMDAHQIETMILSLAAVGVQAIPDRRKAIEIARRANDMLAEECAKRPDRFLAFAALPLQDVDAASEELQRTVNTLGFVGALVNGFSVEGDGQTPLYYDLPQYRPFWGEVEKLDVPFYLHPRNPLPQDSRIYDGHPWLLGPTWAFAQETAVHALRLMASGLFDEHPRLNIILGHLGEGLPYMMYRIDHRIAWVKLPPRYPAKRRFMDYFNENFHITTSGNFRTQTLIDAILEIGADRILFSTDWPFENIDHAAAWFNATSIAEADRVKIGRTNARRLFKLDGA
modifications: Dicamba decarboxylase variant
B5: 149 (protein)
chain: MAQGKVALEEHFAIPETLQDSAGFVPSEYLKELQHRLLDIQDTRLKLMDAHGIETMILSLAAPAVQAIPDRRKAIEIARRANDMLAEECAKRPDRFLAFAALPLQDPDAATEELQRCVNTLGFVGALVNGFSVEGDGQTPLYYDLPQYRPFWGEVEKLDVPFYLHPRNPLPQDSRIYDGHPWLLGPTWAFAQETAVHALRLMASGLFDEHPRLNIILGHLGEGLPYMMYRIDHRIAWVHEPPRYPAKRRFMDYFNENFHITTSGNFRTQTLIDAILEIGADRILFSTDWPFENIDHAADWFNATSIAEADRVKIGRTNARRLFKLDGD
modifications: Dicamba decarboxylase variant
B6: 150 (protein)
chain: MAQGKVALEEHFAIPETLQDSAGFVPGDYWKELQHRLLDIQDTRLKLMDAHGIETMILSLAAPAVQAIPDRRKAIEIARRANDFLAEECAKRPDRFLAFAALPLQDPDAATEELQRTVNDLGFVGALVNGFSQEGDGQTPLYYDLPQYRPFWGEVEKLDVPFYLHPRNPLPQDSRIYDGHPWLLGPTWAFAQETAVHALRLMASGLFDEHPRLNIILGHMGEGLPYMMYRIDHRIAWVKLPPRYPAKRRFMDYFNENFHITTSGNFRTQTLIDAILEIGADRILFSTDWPFENIDHAADWFNATSIAEADRVKIGRTNARRLFKLDGD
modifications: Dicamba decarboxylase variant
B7: 151 (protein)
chain: MAQGKVALEEHFAIPETLQDSAGFVPGDYWKELQHRLLDIQDTRLKLMDAHGIETMILSLAAPAVQAIPDRRKAIEIARRANDFLAEECAKRPDRFLAFAALPLQDPDAATEELQRCVNDLGFVGALVNGFSQEGDGQTPLYYDLPQYRPFWGEVEKLDVPFYLHPRNPLPQDSRIYDGHPWLLGPTWAFAQETAVHALRLMASGLFDEHPRLNIILGHMGEGLPYMMYRIDHRIAWVHQPPRYPAKRRFMDYFNENFHITTSGNFRTQTLIDAILEIGADRILFSTDWPFENIDHAADWFNATSIAEADRVKIGRTNARRLFKLDGD
modifications: Dicamba decarboxylase variant
B8: 152 (protein)
chain: MAQGKVALEEHFAIPETLQDSAGFVPGDYWKELQHRLLDIQDTRLKLMDAHGIETMILSLAAPAVQAIPDRRKAIEIARRANDFLAEECAKRPDRFLAFAALPLQDPDAATEELQRCVNDLGFVGALVNGFSVEGDGQTPLYYDLPQYRPFWGEVEKLDVPFYLHPRNPLPQDSRIYDGHPWLLGPTWAFAQETAVHALRLMASGLFDEHPRLNIILGHMGEGLPYMMYRIDHRIAWVKLPPRYPAKRRFMDYFNENFHITTSGNFRTQTLIDAILEIGADRILFSTDWPFENIDHAADWFNATSIAEADRVKIGRTNARRLFKLDGA
modifications: Dicamba decarboxylase variant
B9: 153 (protein)
chain: MAQGKVALEEHFAIPETLQDSAGFVPSEYLKELQHRLLDIQDTRLKLMDAHGIETMILSLAAPAVQAIPDRRKAIEIARRANDFLAEECAKRPDRFLAFAALPLQDVDAATEELQRCVNDLGFVGALVNGFSVEGDGQTPLYYDLPQYRPFWGEVEKLDVPFYLHPRNPLPQDSRIYDGHPWLLGPTWAFAQETAVHALRLMASGLFDEHPRLNIILGHLGEGLPYMMYRIDHRIAWVKLPPRYPAKRRFMDYFNENFHITTSGNFRTQTLIDAILEIGADRILFSTDWPFENIDHAADWFNATSIAEADRLKIGRTNARRLFKLDGD
modifications: Dicamba decarboxylase variant
B10: 154 (protein)
chain: MAQGKVALEEHFAIPETLQDSAGFVPGDYWKELQHRLLDIQDTRLKLMDAHGIETMILSLAAPAVQAIPDRHKAIEIARRANDFLAEECAKRPDRFLAFAALPLQDPDAATEELQRTVNDLGFVGALVNGFSQEGDGQTPLYYDLPQYRPFWGEVEKLDVPFYLHPRNPLPQDSRIYDGHPWLLGPTWAFAQETAVHALRLMASGLFDEHPRLNIILGHMGEGLPYMMYRIDHRIAWVHEPPRYPAKRRFMDYFNENFHITTSGNFRTQTLIDAILEIGADRILFSTDWPFENIDHAADWFNATSIAEADRVKIGRTNARRLFKLDGD
modifications: Dicamba decarboxylase variant
B11: 155 (protein)
chain: MAQGKVALEEHFAIPETLQDSAGFVPGDYWKELQHRLLDIQDTRLKLMDAHGIETMILSLAAPAVQAIPDRRKAIEIARRANDFLAEECAKRPDRFLAFAALPLQDPDAATEELQRCVNDLGFVGALVNGFSVEGDGQTPLYYDLPQYRPFWGEVEKLDVPFYLHPRNPLPQDSRIYDGHPWLLGPTWAFAQETAVHALRLMASGLFDEHPRLNIILGHLGEGLPYMMYRIDHRIAWVHEPPRYPAKRRFMDYFNENFHITTSGNFRTQTLIDAILEIGADRILFSTDWPFENIDHAADWFNATSIAEADRLKIGRTNARRLFKLDGA
modifications: Dicamba decarboxylase variant
B12: 156 (protein)
chain: MAQGKVALEEHFAIPETLQDSAGFVPSDYLKELQHRLLDIQDTRLKLMDAHGIETMILSLAAPAVQAIPDRRKAIEIARRANDFLAEECAKRPDRFLAFAALPMQDPDAATEELQRCVNDLGFVGALVNGFSVEGDGQTPLYYDLPQYRPFWGEVEKLDVPFYLHPRNPLPQDSRIYDGHPWLLGPTWAFAQETAVHALRLMASGLFDEHPRLNIILGHLGEGLPYMMYRIDHRIAWVHEPPRYPAKRRFMDYFNENFHITTSGNFRTQTLIDAILEIGADRILFSTDWPFENIDHAADWFNATSIAEADRLKIGRTNARRLFKLDGA
modifications: Dicamba decarboxylase variant
B13: 157 (protein)
chain: MAQGKVALEEHFAIPETLQDSAGFVPGDYWKELQHRLLDIQDTRLKLMDAHGIETMILSLAAPAVQAIPDRRKAIEIARRANDFLAEECAKRPDRFLAFAALPLQDPAAATEELQRCVNDLGFVGALVNGFSVEGDGQTPLYYDLPQYRPFWGEVEKLDVPFYLHPRNPLPQDSRIYDGHPWLLGPTWAFAQETAVHALRLMASGLFDEHPRLNIILGHMGEGLPYMMYRIDHRIAWVHEPPRYPAKRRFMDYFNENFHITTSGNFRTQTLIDAILEIGADRILFSTDWPFENIDHAADWFNATSIAEADRLKIGRTNARRLFKLDGD
modifications: Dicamba decarboxylase variant
B14: 158 (protein)
chain: MAQGKVALEEHFAIPETLNDSAGFVPGDYWKELQHRLLDIQDTRLKLMDAHGIETMILSLAAPAVQAIPDRRKAIEIARRANDFLAEECAKRPDRFLAFAALPLQDPDAATEELQRCVNDLGFVGALVNGFSQEGDGQTPLYYDLPQYRPFWGEVEKLDVPFYLHPRNPLPQDSRIYDGHPWLLGPTWAFAQETAVHALRLMASGLFDEHPRLNIILGHMGEGLPYMMYRIDHRIAWVKLPPRYPAKRRFMDYFNENFHITTSGNFRTQTLIDAILEIGADRILFSTDWPFENIDHATAWFNATSIAEADRVKIGRTNARRLFKLDGA
modifications: Dicamba decarboxylase variant

What was measured:
[1] = DNA shuffling libraries: 14CO2 capturing assay in 384-well format, fold activity of backbone (Megatable 2); details: relative to backbone SEQ ID NO: 133 (DDEC0201)
[2] = Saturation mutagenesis of SEQ ID NO:109: dicamba decarboxylation activity of point mutants (CO2 released), fold of backbone (Tables 7, 8, Megatable 1); details: decarboxylation activity (CO2 released) of point mutant vs unmutated backbone protein; backbone SEQ ID NO: 109

| Molecule | Fold Activity [1] | Fold Activity [2] |
| --- | --- | --- |
| B1 | 1.1 fold | 1.2 fold |
| B2 | 1.2 fold | 1.3 fold |
| B3 | 0.8 fold | 1.3 fold |
| B4 | 0.8 fold | 1.5 fold |
| B5 | 1.1 fold | 1.6 fold |
| B6 | 1.1 fold | 1.4 fold |
| B7 | 1.0 fold | 1.9 fold |
| B8 | 1.1 fold | 1.8 fold |
| B9 | 1.8 fold | 1.7 fold |
| B10 | 1.3 fold | 1.3 fold |
| B11 | 1.2 fold | 1.5 fold |
| B12 | 1.5 fold | 1.5 fold |
| B13 | 1.2 fold | 1.4 fold |
| B14 | 1.0 fold | 1.6 fold |
